# Laboratory results taken from patent US20250152742A1, “COMPOSITIONS AND METHODS FOR NEUROLOGICAL DISEASES” (Trames Bio, Inc., priority 2022, published 2025).
# System: engineered chimeric receptor SEQ ID NO: 33 and its mutants (human α7-nAChR ligand binding domain / human GlyRα1 ion pore domain) in Lenti-X 293T cells
# Test: YFP fluorescence quenching anion reporter plate reader assay (percent quench, EC50)
# Type: cell-based
# Conditions: for YFP fluorescence quenching using CNL001 (percent quench): receptor named in row; for YFP fluorescence quenching using Facinicline, 30 nM fac: ligand Facinicline 30 nM; for YFP fluorescence quenching using Facinicline, 300 nM fac: ligand Facinicline 300 nM; for YFP fluorescence quenching using Facinicline, 30 uM fac: ligand Facinicline 30 uM; for YFP fluorescence quenching using TC-6987, 1 uM tc6987: ligand TC-6987 1 uM; for YFP fluorescence quenching using TC-6987, 10 uM tc6987: ligand TC-6987 10 uM; for YFP fluorescence quenching using TC-6987, 500 uM tc6987: ligand TC-6987 500 uM; for YFP fluorescence quenching using Varenicline, 3 nM var: ligand Varenicline 3 nM; for YFP fluorescence quenching using Varenicline, 30 nM var: ligand Varenicline 30 nM; for YFP fluorescence quenching using Varenicline, 300 nM var: ligand Varenicline 300 nM; for YFP fluorescence quenching using Varenicline, 500 nM var: ligand Varenicline 500 nM; for YFP fluorescence quenching using Varenicline, 1 uM var: ligand Varenicline 1 uM
# Outline: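 Lenti-X 293T cells co-expressing an anion-quenchable YFP were transiently transfected with receptor DNA, then ligand was added in NaI-substituted buffer (pH 7.2) after 30 min at 37 °C. Fluorescence was read about 2 min; percent quench = mean of last 10 s over 15 s pre-ligand baseline.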
# [1] = 1 nM CNL001, first column so headed
# [2] = 1 nM CNL001, second column so headed
# [3] = 1 nM brd (TC-5619/Bradanicline)
# [4] = 3 nM brd (TC-5619/Bradanicline)
# [5] = 10 nM CNL001, first column so headed
# [6] = 10 nM CNL001, second column so headed
# [7] = 10 nM brd (TC-5619/Bradanicline)
# [8] = 30 nM brd (TC-5619/Bradanicline)
# [9] = 50 nM CNL001, first column so headed
# [10] = 50 nM CNL001, second column so headed
# [11] = 100 nM CNL001, first column so headed
# [12] = 100 nM CNL001, second column so headed
# [13] = 300 nM brd (TC-5619/Bradanicline)
# [14] = 1 uM CNL001, first column so headed
# [15] = 1 uM CNL001, second column so headed
molecule,measurement,setting,value
"CODA1027: engineered receptor: R101F, L131D in SEQ ID NO: 33 (protein, synthetic sequence of chimeric LGIC) MRCSPGGVWLALAASLLHVSLQGEFQRKLYKELVKNYNPLERPVANDSQPLTVYFSLSLLQIMDVDEKNQVLTTNIWLQMSWTDHYLQWNVSEYPGVKTVFFPDGQIWKPDILLYNSADERFDATFHTNVDVNSSGHCQYLPPGIFKSSCPMDLKNFPMDVQTCKLKFGSWSYGGWSLDLQMQEADISGYIPNGEWDLVGIPGKRSERFYECCKEPYPDVTFTVTMRRRMGYYLIQMYIPSLLIVILSWISFWINMDAAPARVGLGITTVLTMTTQSSGSRASLPKVSYVKAIDIWMAVCLLFVFSALLEYAAVNFVSRQHKELLRFRRKRRHHKSPMLNLFQEDEAGEGRFNFSAYGMGPACLQAKDGISVKGANNSNTTNPPPAPSKSPEEMRKLFIQRAKKIDKISRIGFPMAFLIFNMFYWIIYKIVRREDVHNQ",YFP fluorescence quenching using CNL001 (percent quench),[1],24.049%
same,YFP fluorescence quenching using CNL001 (percent quench),[2],36.755%
same,YFP fluorescence quenching using TC-5619/Bradanicline (percent quench),[3],−10.07%
same,YFP fluorescence quenching using TC-5619/Bradanicline (percent quench),[4],−0.8%
same,YFP fluorescence quenching using CNL001 (percent quench),[5],52.927%
same,YFP fluorescence quenching using CNL001 (percent quench),[6],61.449%
same,YFP fluorescence quenching using TC-5619/Bradanicline (percent quench),[7],1.74%
same,YFP fluorescence quenching using TC-6683 (percent quench),30 nM TC-6683,1.189%
same,YFP fluorescence quenching using TC-5619/Bradanicline (percent quench),[8],53.95%
same,YFP fluorescence quenching using CNL001 (percent quench),[9],67.308%
same,YFP fluorescence quenching using CNL001 (percent quench),[10],68.77%
same,YFP fluorescence quenching using ABT-126 (percent quench),50 nM abt (ABT-126),−11.89%
same,YFP fluorescence quenching using CNL001 (percent quench),[11],69.049%
same,YFP fluorescence quenching using CNL001 (percent quench),[12],71.613%
same,YFP fluorescence quenching (percent quench),100 nM CNL002,7.75%
same,YFP fluorescence quenching using ABT-126 (percent quench),100 nM abt (ABT-126),−16.07%
same,YFP fluorescence quenching using AZD-0328 (percent quench),100 nM azd0328,−4.76%
same,YFP fluorescence quenching using TC-6683 (percent quench),300 nM TC-6683,0.939%
same,YFP fluorescence quenching using ABT-126 (percent quench),300 nM abt (ABT-126),−11.21%
same,YFP fluorescence quenching using AZD-0328 (percent quench),300 nM azd0328,−7.52%
same,YFP fluorescence quenching using TC-5619/Bradanicline (percent quench),[13],76.74%
same,YFP fluorescence quenching using CNL001 (percent quench),[14],71.811%
same,YFP fluorescence quenching using CNL001 (percent quench),[15],69.907%
same,YFP fluorescence quenching (percent quench),1 uM CNL002,61.97%
same,YFP fluorescence quenching using ABT-126 (percent quench),1 uM abt (ABT-126),−9.38%
same,YFP fluorescence quenching using TC-6683 (percent quench),3 uM TC-6683,1.327%
same,YFP fluorescence quenching (percent quench),10 uM ach (acetylcholine),−1.62%
same,YFP fluorescence quenching (percent quench),30 uM CNL002,65.77%
same,YFP fluorescence quenching using TC-6683 (percent quench),30 uM TC-6683,−0.845%
same,YFP fluorescence quenching using AZD-0328 (percent quench),30 uM azd0328,74.9%
same,YFP fluorescence quenching (percent quench),50 uM ach (acetylcholine),−1.6%
same,YFP fluorescence quenching using TC-6683 (percent quench),100 uM TC-6683,−3.136%
same,YFP fluorescence quenching (percent quench),100 uM ach (acetylcholine),−2.62%
same,YFP fluorescence quenching (percent quench),300 uM ach (acetylcholine),−6.12%
same,YFP fluorescence quenching (percent quench),500 uM ach (acetylcholine),−7.71%
same,YFP fluorescence quenching (percent quench),1 mM ach (acetylcholine),−5.73%
same,YFP fluorescence quenching (percent quench),3 mM ach (acetylcholine),33.69%
same,"YFP fluorescence quenching using Facinicline, 30 nM fac",,−10.05
same,"YFP fluorescence quenching using Facinicline, 300 nM fac",,−12.54
same,"YFP fluorescence quenching using Facinicline, 30 uM fac",,70.96
same,"YFP fluorescence quenching using TC-6987, 1 uM tc6987",,0.88
same,"YFP fluorescence quenching using TC-6987, 10 uM tc6987",,56.27
same,"YFP fluorescence quenching using TC-6987, 500 uM tc6987",,71.3
same,"YFP fluorescence quenching using Varenicline, 3 nM var",first column,−3.367
same,"YFP fluorescence quenching using Varenicline, 3 nM var",second column,−0.431
same,"YFP fluorescence quenching using Varenicline, 30 nM var",first column,−0.761
same,"YFP fluorescence quenching using Varenicline, 30 nM var",second column,2.989
same,"YFP fluorescence quenching using Varenicline, 300 nM var",first column,2.966
same,"YFP fluorescence quenching using Varenicline, 300 nM var",second column,10.211
same,"YFP fluorescence quenching using Varenicline, 500 nM var",first column,15.278
same,"YFP fluorescence quenching using Varenicline, 500 nM var",second column,20.84
same,"YFP fluorescence quenching using Varenicline, 1 uM var",first column,37.104
same,"YFP fluorescence quenching using Varenicline, 1 uM var",second column,42.439
"CODA1039: engineered receptor: Y115E, Y210W in SEQ ID NO: 33 (protein, synthetic sequence of chimeric LGIC) MRCSPGGVWLALAASLLHVSLQGEFQRKLYKELVKNYNPLERPVANDSQPLTVYFSLSLLQIMDVDEKNQVLTTNIWLQMSWTDHYLQWNVSEYPGVKTVRFPDGQIWKPDILLENSADERFDATFHTNVLVNSSGHCQYLPPGIFKSSCPMDLKNFPMDVQTCKLKFGSWSYGGWSLDLQMQEADISGYIPNGEWDLVGIPGKRSERFWECCKEPYPDVTFTVTMRRRMGYYLIQMYIPSLLIVILSWISFWINMDAAPARVGLGITTVLTMTTQSSGSRASLPKVSYVKAIDIWMAVCLLFVFSALLEYAAVNFVSRQHKELLRFRRKRRHHKSPMLNLFQEDEAGEGRFNFSAYGMGPACLQAKDGISVKGANNSNTTNPPPAPSKSPEEMRKLFIQRAKKIDKISRIGFPMAFLIFNMFYWIIYKIVRREDVHNQ",YFP fluorescence quenching using CNL001 (percent quench),[1],−1.12%
same,YFP fluorescence quenching using CNL001 (percent quench),[2],−3.941%
same,YFP fluorescence quenching using TC-5619/Bradanicline (percent quench),[3],−5.55%
same,YFP fluorescence quenching using TC-5619/Bradanicline (percent quench),[4],6.78%
same,YFP fluorescence quenching using CNL001 (percent quench),[5],6.275%
same,YFP fluorescence quenching using CNL001 (percent quench),[6],11.943%
same,YFP fluorescence quenching using TC-5619/Bradanicline (percent quench),[7],−2.7%
same,YFP fluorescence quenching using TC-6683 (percent quench),30 nM TC-6683,−1.608%
same,YFP fluorescence quenching using TC-5619/Bradanicline (percent quench),[8],34.43%
same,YFP fluorescence quenching using CNL001 (percent quench),[9],12.949%
same,YFP fluorescence quenching using CNL001 (percent quench),[10],18.635%
same,YFP fluorescence quenching using ABT-126 (percent quench),50 nM abt (ABT-126),−17.32%
same,YFP fluorescence quenching using CNL001 (percent quench),[11],17.576%
same,YFP fluorescence quenching using CNL001 (percent quench),[12],18.319%
same,YFP fluorescence quenching (percent quench),100 nM CNL002,21.85%
same,YFP fluorescence quenching using ABT-126 (percent quench),100 nM abt (ABT-126),−13.93%
same,YFP fluorescence quenching using AZD-0328 (percent quench),100 nM azd0328,−10.45%
same,YFP fluorescence quenching using TC-6683 (percent quench),300 nM TC-6683,−3.491%
same,YFP fluorescence quenching using ABT-126 (percent quench),300 nM abt (ABT-126),9.9%
same,YFP fluorescence quenching using AZD-0328 (percent quench),300 nM azd0328,−13%
same,YFP fluorescence quenching using TC-5619/Bradanicline (percent quench),[13],70.05%
same,YFP fluorescence quenching using ABT-126 (percent quench),500 nM abt (ABT-126),36.97%
same,YFP fluorescence quenching using CNL001 (percent quench),[14],19.329%
same,YFP fluorescence quenching using CNL001 (percent quench),[15],20.672%
same,YFP fluorescence quenching (percent quench),1 uM CNL002,47.37%
same,YFP fluorescence quenching using ABT-126 (percent quench),1 uM abt (ABT-126),48.37%
same,YFP fluorescence quenching using TC-6683 (percent quench),3 uM TC-6683,−6.153%
same,YFP fluorescence quenching using ABT-126 (percent quench),3 uM abt (ABT-126),50.5%
same,YFP fluorescence quenching using ABT-126 (percent quench),10 uM abt (ABT-126),58.13%
same,YFP fluorescence quenching (percent quench),10 uM ach (acetylcholine),−2.97%
same,YFP fluorescence quenching (percent quench),30 uM CNL002,59.97%
same,YFP fluorescence quenching using TC-6683 (percent quench),30 uM TC-6683,−9.263%
same,YFP fluorescence quenching using ABT-126 (percent quench),30 uM abt (ABT-126),64.1%
same,YFP fluorescence quenching using AZD-0328 (percent quench),30 uM azd0328,30.76%
same,YFP fluorescence quenching using ABT-126 (percent quench),50 uM abt (ABT-126),66.67%
same,YFP fluorescence quenching (percent quench),50 uM ach (acetylcholine),−3.94%
same,YFP fluorescence quenching using TC-6683 (percent quench),100 uM TC-6683,−9.19%
same,YFP fluorescence quenching using ABT-126 (percent quench),100 uM abt (ABT-126),68.63%
same,YFP fluorescence quenching (percent quench),100 uM ach (acetylcholine),0.35%
same,YFP fluorescence quenching (percent quench),300 uM ach (acetylcholine),−4.13%
same,YFP fluorescence quenching (percent quench),500 uM ach (acetylcholine),−5.18%
same,YFP fluorescence quenching (percent quench),1 mM ach (acetylcholine),1.21%
same,YFP fluorescence quenching (percent quench),3 mM ach (acetylcholine),26.69%
same,"YFP fluorescence quenching using Facinicline, 30 nM fac",,−13.46
same,"YFP fluorescence quenching using Facinicline, 300 nM fac",,5.43
same,"YFP fluorescence quenching using Facinicline, 30 uM fac",,49.06
same,"YFP fluorescence quenching using TC-6987, 1 uM tc6987",,7.26
same,"YFP fluorescence quenching using TC-6987, 10 uM tc6987",,11
same,"YFP fluorescence quenching using TC-6987, 500 uM tc6987",,7.97
same,"YFP fluorescence quenching using Varenicline, 3 nM var",first column,−10.926
same,"YFP fluorescence quenching using Varenicline, 3 nM var",second column,−7.395
same,"YFP fluorescence quenching using Varenicline, 30 nM var",first column,−5.661
same,"YFP fluorescence quenching using Varenicline, 30 nM var",second column,−1.244
same,"YFP fluorescence quenching using Varenicline, 300 nM var",first column,−4.555
same,"YFP fluorescence quenching using Varenicline, 300 nM var",second column,1.081
same,"YFP fluorescence quenching using Varenicline, 500 nM var",first column,9.172
same,"YFP fluorescence quenching using Varenicline, 500 nM var",second column,12.561
same,"YFP fluorescence quenching using Varenicline, 1 uM var",first column,7.139
same,"YFP fluorescence quenching using Varenicline, 1 uM var",second column,12.664
